Drawing on US20150191520A1 (MEDIZINISCHE UNIVERSIT T WIEN, published 2015), this text covers binding result and Kd for four molecules.

In assay [1] the target is T1, isolated human C3b (ih-C3b) (human, UniProt P01024 749-1663; P01024 23-667, limits assumed, biotin on amino groups (Biotin-X-NHS) in flow cytometry; unlabelled in ELISA).
T1 construct: Multi-chain fragment
The experiment in a line: flow cytometry, CSP on transduced Bw cells (FIG. 5a). On the procedure: (§1) FIG. 5. Flow cytometric analysis of the interaction of C4d, C3d, C4b, C3b and iC3b and human MHC class I tetramers with Bw cells transduced to express a ILT1 transcript variants 1 and 2 (ILT1v1 and ILT1v2), ILT3 and ILT7, b previously established complement receptors CD21, CD46 and CRIg, and c PIR-A transcript variant 1 (PIR-Avl), murine ortholog of ILT1. a-c left panels: Expression of transduced receptors was assessed using specific antibodies (grey histograms); open histograms represent reactivity of these antibodies with control Bw cells. d Plate-bound CSP were probed with a recombinant protein representing the human CD35 extracellular domain (rh-sCD35) via ELISA. BSA was used as a plate-bound ligand control; white control bars represent no rh-sCD35 added to the assay.
(§2) Flow cytometric analyses were performed via a FACSCalibur flow cytometrer (BD Biosciences, Franklin Lakes, N.J.) using 60,000 cells per sample resuspended in FACS-buffer. […] For fluorescence-activated cell sorting (FACS), Bw cells expressing a retroviral cDNA expression library generated from moDC¹⁶ were incubated with biotinylated rh-C4Ad or rh-C4Bd (20m/mL each) in FACS-buffer for 30 minutes on ice followed by two washing steps and subsequent detection of bound biotinylated C4d molecules through incubation with SA-PE. […]
(In general: A flow cytometer gives signals particle by particle.)

The target of assay [2] is T2, isolated human iC3b (ih-iC3b) (human, UniProt P01024 23-667; P01024 749-1303; P01024 1321-1663, limits assumed, biotin on amino groups (Biotin-X-NHS) in flow cytometry; unlabelled in ELISA).
T2 construct: Multi-chain fragment
The assay is described as above. The protocol:
as §1, §2

Assay [3] concerns the target T3, immunoglobulin-like transcript 4 (ILT4) (human, UniProt Q8N423 22-597).
T3 construct: Expressed on Bw5147 cells from a 2 kb retroviral insert; In the functional assays it is the native receptor on human monocytes; also called CD85d; LILRB2
The experiment in a line: flow cytometry: rh-C4d (C4Ad per the FIG. 3a legend) titrated on Bw-ILT4 cells, detected with C4d-mMAb, Langmuir 1:1 isotherm; stated to be a minimum estimate (non-equilibrium assay). The protocol: FIG. 3. Classical receptor-ligand interaction between C4d and ILT4. a Bw-ILT4 cells or control Bw cells (Bw-mock) were incubated with different concentrations of C4Ad and cell-bound C4Ad was measured by flow cytometry using C4d-mMAb for detection. Data obtained for C4Ad are representative for those using C4Bd, data not shown. Mean and standard deviation of triplicate measurements are shown. b Dissociation constant (Kd) of the C4d-ILT4 interaction assessed via Langmuir binding isotherm equation for single class 1:1 binding equilibrium based on data shown in FIG. 3a.
Flow cytometric analyses were performed via a FACSCalibur flow cytometrer (BD Biosciences, Franklin Lakes, N.J.) using 60,000 cells per sample resuspended in FACS-buffer. In experiments employing monocytes or moDCs, human IgG (Beriglobin P; CSL Behring, Vienna, Austria) was used at 20 mg/mL to block Fcγ receptors. For fluorescence-activated cell sorting (FACS), Bw cells expressing a retroviral cDNA expression library generated from moDC¹⁶ were incubated with biotinylated rh-C4Ad or rh-C4Bd (20m/mL each) in FACS-buffer for 30 minutes on ice followed by two washing steps and subsequent detection of bound biotinylated C4d molecules through incubation with SA-PE. FACS was performed using a FACSDiva (BD Biosciences).

Assay [4] concerns the target T3, immunoglobulin-like transcript 4 (ILT4). The experiment in a line: flow cytometry, biotinylated C4d (20 µg/mL) on Bw cells expressing ILT4. From the text:
FIG. 1. Identification of ILT4 as cellular receptor for C4d. a Flow cytometric analyses showing the interaction of biotinylated recombinant human C4d (20m/mL) of both isoforms, rh-C4Ad and rh-C4Bd, with monocytes and monocyte-derived dendritic cells (moDC; grey histograms). Open histograms represent the reactivity of the secondary reagent with these cells. SA-PE: streptavidin-R-PE. b C4d-reactive cells were enriched from a Bw cell pool expressing a cDNA library derived from human moDC by multiple rounds of FACS. Data obtained for rh-C4Bd are representative for those obtained using rh-C4Ad (data not shown). Sorting gates are shown. c Single cell clones derived from the C4d reactive Bw cell pool were probed with rh-C4Ad- and rh-C4Bd. MFI: mean fluorescence intensity. d PCR-amplification of the retroviral inserts of the C4d-b(C4Bd) binding clones 1.5 and 3.7. e Bw cells expressing a 2 kb retroviral insert encoding immunoglobulin-like transcript 4 (ILT4) were probed with biotinylated rh-C4Ad, rh-C4Bd and C4d isolated from human plasma (ih-C4d) each at 20m/mL or ILT4-specific mMAb (grey histograms). Open histograms represent reactivity of C4d molecules and ILT4 mMAb with control Bw-cells. f Monocytes and moDC were analyzed for ILT4 expression (grey histograms, ILT4-mMAb; open histograms, isotype control). […]

Assay [5] has as its target T1, isolated human C3b (ih-C3b). Nature of the assay: flow cytometry, CSP on transduced Bw cells (FIG. 2a). The protocol: (§3) FIG. 2. Interaction of ILT4 and ILT5v2 with C4d, C4b, C3d, C3b and iC3b. a Flow cytometric analysis of Bw cells transduced to express ILT2, ILT4 and ILT5-antigenic variants 1 and 2 (ILT5v1 and ILT5v2). Expression of ILT-receptors was verified with specific monoclonal antibodies (left panels, grey histograms; open histograms represent reactivity of ILT MAbs with mock treated Bw cells). Interaction of Bw cells expressing ILT-molecules and mock-treated Bw cells with the indicated CSPs (20 μg/mL each) and with MHC-class I tetramers (further panels, grey histograms). b Interaction of plate-bound CSPs with recombinant human ILT4-Fc fusion protein (rh-ILT4-Fc) or control Fc-fusion protein (rh-ILT3-Fc) was analyzed in an ELISA. c Bw cells transduced to express PIR-B, the murine ortholog of ILT4, were probed with a PIR-B-specific monoclonal antibody or with human CSPs and human MHC-class I tetramers.
(§4) Flow cytometric analyses were performed via a FACSCalibur flow cytometrer (BD Biosciences, Franklin Lakes, N.J.) using 60,000 cells per sample resuspended in FACS-buffer. In experiments employing monocytes or moDCs, human IgG (Beriglobin P; CSL Behring, Vienna, Austria) was used at 20 mg/mL to block Fcγ receptors. […]

Assay [6] concerns the target T2, isolated human iC3b (ih-iC3b). Described as above. The protocol:
as §3, §4

T3 sequence (Q8N423 other isoform, or with tags, fused parts or gaps limits assumed): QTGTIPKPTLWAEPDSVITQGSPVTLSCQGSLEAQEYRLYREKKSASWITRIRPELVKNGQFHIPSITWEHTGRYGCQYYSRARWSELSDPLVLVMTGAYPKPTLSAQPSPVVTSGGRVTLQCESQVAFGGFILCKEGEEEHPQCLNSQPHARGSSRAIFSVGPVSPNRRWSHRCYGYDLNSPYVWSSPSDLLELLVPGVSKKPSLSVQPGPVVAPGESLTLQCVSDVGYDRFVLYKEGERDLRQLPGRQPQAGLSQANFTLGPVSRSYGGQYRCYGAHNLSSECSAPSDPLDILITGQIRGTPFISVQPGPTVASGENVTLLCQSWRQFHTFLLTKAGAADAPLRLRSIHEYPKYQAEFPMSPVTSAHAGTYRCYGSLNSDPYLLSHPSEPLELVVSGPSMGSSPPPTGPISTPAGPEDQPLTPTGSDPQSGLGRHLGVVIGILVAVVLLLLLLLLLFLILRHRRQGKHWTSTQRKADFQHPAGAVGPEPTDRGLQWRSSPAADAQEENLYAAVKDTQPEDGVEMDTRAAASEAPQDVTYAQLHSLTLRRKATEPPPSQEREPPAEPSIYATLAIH

B1: ILT7 (receptor, human, UniProt P59901 24-499, looked up)
chain: ENLLKPILWAEPGPVITWHNPVTIWCQGTLEAQGYRLDKEGNSMSRHILKTLESENKVKLSIPSMMWEHAGRYHCYYQSPAGWSEPSDPLELVVTAYSRPTLSALPSPVVTSGVNVTLRCASRLGLGRFTLIEEGDHRLSWTLNSHQHNHGKFQALFPMGPLTFSNRGTFRCYGYENNTPYVWSEPSDPLQLLVSGVSRKPSLLTLQGPVVTPGENLTLQCGSDVGYIRYTLYKEGADGLPQRPGRQPQAGLSQANFTLSPVSRSYGGQYRCYGAHNVSSEWSAPSDPLDILIAGQISDRPSLSVQPGPTVTSGEKVTLLCQSWDPMFTFLLTKEGAAHPPLRLRSMYGAHKYQAEFPMSPVTSAHAGTYRCYGSRSSNPYLLSHPSEPLELVVSGATETLNPAQKKSDSKTAPHLQDYTVENLIRMGVAGLVLLFLGILLFEAQHSQRSPPRCSQEANSRKDNAPFRVVEPWEQI
notes: whole, on cells
Turning to B1, the binding result in assay [1] and in assay [2] was “no binding” throughout.

B2: recombinant human C4d, isoform C4d-A (rh-C4Ad) (ligand)
chain: TLEIPGNSDPNMIPDGDFNSYVRVTASDPLDTLGSEGALSPGGVASLLRLPRGCGEQTMIYLAPTLAASRYLDKTEQWSTLPPETKDHAVDLIQKGYMRIQQFRKADGSYAAWLSRDSSTWLTAFVLKVLSLAQEQVGGSPEKLQETSNWLLSQQQADGSFQDPCPVLDRSMQGGLVGNDETVALTAFVTIALHHGLAVFQDEGAEPLKQRVEASISKANSFLGEKASAGLLGAHAAAITAYALTLTKAPVDLLGVAHNNLMAMAQETGDNLYWGSVTGSQSNAVSPTPAPRNPSDPMPQAPALWIETTAYALLHLLLHEGKAEMADQASAWLTRQGSFQGGFRSTQDTVIALDALSAYWIASHTTEERGLNVTLSSTGR
modifications: biotin on amino groups (Biotin-X-NHS) or, when indicated, on the thioester cysteine C1010 (prepro numbering) via Iodoacetyl-LC-biotin; unlabelled in FIG. 3a and when used as competitor
notes: also called complement split product C4Ad; rh-C4d
B2: the dissociation constant (Kd) in assay [3] was 630 nM.

B3: recombinant human C4d, isoform C4d-B (rh-C4Bd) (ligand)
chain: TLEIPGNSDPNMIPDGDFNSYVRVTASDPLDTLGSEGALSPGGVASLLRLPRGCGEQTMIYLAPTLAASRYLDKTEQWSTLPPETKDHAVDLIQKGYMRIQQFRKADGSYAAWLSRGSSTWLTAFVLKVLSLAQEQVGGSPEKLQETSNWLLSQQQADGSFQDLSPVIHRSMQGGLVGNDETVALTAFVTIALHHGLAVFQDEGAEPLKQRVEASISKASSFLGEKASAGLLGAHAAAITAYALTLTKAPADLRGVAHNNLMAMAQETGDNLYWGSVTGSQSNAVSPTPAPRNPSDPMPQAPALWIETTAYALLHLLLHEGKAEMADQAAAWLTRQGSFQGGFRSTQDTVIALDALSAYWIASHTTEERGLNVTLSSTGR
modifications: biotin on amino groups (Biotin-X-NHS) or, when indicated, on the thioester cysteine C1010 (prepro numbering) via Iodoacetyl-LC-biotin; unlabelled when used as competitor
notes: also called complement split product C4Bd; rh-C4d
Regarding B3, the binding result in assay [4] was “binds”.

B4: ILT2 (receptor, human, UniProt Q8NHL6 24-650, looked up)
chain: GHLPKPTLWAEPGSVITQGSPVTLRCQGGQETQEYRLYREKKTALWITRIPQELVKKGQFPIPSITWEHAGRYRCYYGSDTAGRSESSDPLELVVTGAYIKPTLSAQPSPVVNSGGNVILQCDSQVAFDGFSLCKEGEDEHPQCLNSQPHARGSSRAIFSVGPVSPSRRWWYRCYAYDSNSPYEWSLPSDLLELLVLGVSKKPSLSVQPGPIVAPEETLTLQCGSDAGYNRFVLYKDGERDFLQLAGAQPQAGLSQANFTLGPVSRSYGGQYRCYGAHNLSSEWSAPSDPLDILIAGQFYDRVSLSVQPGPTVASGENVTLLCQSQGWMQTFLLTKEGAADDPWRLRSTYQSQKYQAEFPMGPVTSAHAGTYRCYGSQSSKPYLLTHPSDPLELVVSGPSGGPSSPTTGPTSTSGPEDQPLTPTGSDPQSGLGRHLGVVIGILVAVILLLLLLLLLFLILRHRRQGKHWTSTQRKADFQHPAGAVGPEPTDRGLQWRSSPAADAQEENLYAAVKHTQPEDGVEMDTRSPHDEDPQAVTYAEVKHSRPRREMASPPSPLSGEFLDTKDRQAEEDRQMDTEAAASEAPQDVTYAQLHSLTLRREATEPPPSQEGPSPAVPSIYATLAIH
notes: whole, on cells
With B4, the binding result in assay [5] and in assay [6] was “no binding (tested: 20 µg/mL)” throughout.

As a reminder, the Kd is the equilibrium constant for the complex coming apart.
